Test results reported in paper PMC7763487 (2020).

B1: (Flag)3-TET1 full-length Δ1+2 (Δ109–120 + Δ1132–1202) [mouse] / (HA)3-NANOG [mouse] (parent complex)
chain 1: MSRSRPAKPSKSVKTKLQKKKDIQMKTKTSKQAVRHGASAKAVNPGKPKQLIKRRDGKKETEDKTPTPAPSFLTRAGAARMNRDRNQVLFQNPDSLTCNGFTMALRRTTPKPKKVPPSKKQCTHNIQDEPGVKHSENDSVPSQHATVSPGTENGEQNRCLVEGESQEITQSCPVFEERIEDTQSCISASGNLEAEISWPLEGTHCEELLSHQTSDNECTSPQECAPLPQRSTSEVTSQKNTSNQLADLSSQVESIKLSDPSPNPTGSDHNGFPDSSFRIVPELDLKTCMPLDESVYPTALIRFILAGSQPDVFDTKPQEKTLITTPEQVGSHPNQVLDATSVLGQAFSTLPLQWGFSGANLVQVEALGKGSDSPEDLGAITMLNQQETVAMDMDRNATPDLPIFLPKPPNTVATYSSPLLGPEPHSSTSCGLEVQGATPILTLDSGHTPQLPPNPESSSVPLVIAANGTRAEKQFGTSLFPAVPQGFTVAAENEVQHAPLDLTQGSQAAPSKLEGEISRVSITGSADVKATAMSMPVTQASTSSPPCNSTPPMVERRKRKACGVCEPCQQKANCGECTYCKNRKNSHQICKKRKCEVLKKKPEATSQAQVTKENKRPQREKKPKVLKTDFNNKPVNGPKSESMDCSRRGHGEEEQRLDLITHPLENVRKNAGGMTGIEVEKWAPNKKSHLAEGQVKGSCDANLTGVENPQPSEDDKQQTNPSPTFAQTIRNGMKNVHCLPTDTHLPLNKLNHEEFSKALGNNSSKLLTDPSNCKDAMSVTTSGGECDHLKGPRNTLLFQKPGLNCRSGAEPTIFNNHPNTHSAGSRPHPPEKVPNKEPKDGSPVQPSLLSLMKDRRLTLEQVVAIEALTQLSEAPSESSSPSKPEKDEEAHQKTASLLNSCKAILHSVRKDLQDPNVQGKGLHHDTVVFNGQNRTFKSPDSFATNQALIKSQGYPSSPTAEKKGAAGGRAPFDGFENSHPLPIESHNLENCSQVLSCDQNLSSHDPSCQDAPYSQIEEDVAAQLTQLASTINHINAEVRNAESTPESLVAKNTKQKHSQEKRMVHQKPPSSTQTKPSVPSAKPKKAQKKARATPHANKRKKKPPARSSQENDQKKQEQLAKEKVKVEPSDSLPTCQFKTESGGQTFAEPADNSQGQPMVSVNQEAHPLPQSPPSNQCANIMAGAAQTQFHLGAQENLVHQIPPPTLPGTSPDTLLPDPASILRKGKVLHFDGITVVTEKREAQTSSNGPLGPTTDSAQSEFKESIMDLLSKPAKNLIAGLKEQEAAPCDCDGGTQKEKGPYYTHLGAGPSVAAVRELMETRFGQKGKAIRIEKIVFTGKEGKSSQGCPVAKWVIRRSGPEEKLICLVRERVDHHCSTAVIVVLILLWEGIPRLMADRLYKELTENLRSYSGHPTDRRCTLNKKRTCTCQGIDPKTCGASFSFGCSWSMYFNGCKFGRSENPRKFRLAPNYPLHNYYKRITGMSSEGSDVKTGWIIPDRKTLISREEKQLEKNLQELATVLAPLYKQMAPVAYQNQVEYEEVAGDCRLGNEEGRPFSGVTCCMDFCAHSHKDIHNMHNGSTVVCTLIRADGRDTNCPEDEQLHVLPLYRLADTDEFGSVEGMKAKIKSGAIQVNGPTRKRRLRFTEPVPRCGKRAKMKQNHNKSGSHNTKSFSSASSTSHLVKDESTDFCPLQASSAETSTCTYSKTASGGFAETSSILHCTMPSGAHSGANAAAGECTGTVQPAEVAAHPHQSLPTADSPVHAEPLTSPSEQLTSNQSNQQLPLLSNSQKLASCQVEDERHPEADEPQHPEDDNLPQLDEFWSDSEEIYADPSFGGVAIAPIHGSVLIECARKELHATTSLRSPKRGVPFRVSLVFYQHKSLNKPNHGFDINKIKCKCKKVTKKKPADRECPDVSPEANLSHQIPSRVASTLTRDNVVTVSPYSLTHVAGPYNRWV
chain 2: MSVGLPGPHSLPSSEEASNSGNASSMPAVFHPENYSCLQGSATEMLCTEAASPRPSSEDLPLQGSPDSSTSPKQKLSSPEADKGPEEEENKVLARKQKMRTVFSQAQLCALKDRFQKQKYLSLQQMQELSSILNLSYKQVKTWFQNQRMKCKRWQKNQWLKTSNGLIQKGSAPVEYPSIHCSYPQGYLVNASGSLSMWGSQTWTNPTWSSQTWTNPTWNNQTWTNPTWSSQAWTAQSWNGQPWNAAPLHNFGEDFLQPYVQLQQNFSASDLEVNLEATRESHAHFSTPQALELFLNYSVTPPGEI

Variants of: B1
Assay: co-immunoprecipitation (anti-Flag IP), quantified immunoblot; E14/T ESCs; parent: 0.29; read off a plot

Row | screen value | Variant
1 | ~0.065 | chain 1 F1440A, chain 1 F1442A, chain 1 W1446A, chain 1 Y1449A, chain 1 F1450A, chain 1 F1455A, chain 1 F1464A
